{
  "source": "patent US20220332804A1",
  "about": "(CSL INNOVATION, published 2022)",
  "assay_in_all_cases": "SPR, KD relative to WT C2;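 note: biacore SPR at 37 °C, anti-C2 mAbs captured via immobilised goat anti-human IgG, C2 alanine or serine surface mutants as analytes, 1:1 model fitted, double-referenced sensograms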",
  "key": {"human C2 S720A": {"biological_target": "T1, human C2 S720A (human, UniProt P06681 21-752)", "T1 sequence": "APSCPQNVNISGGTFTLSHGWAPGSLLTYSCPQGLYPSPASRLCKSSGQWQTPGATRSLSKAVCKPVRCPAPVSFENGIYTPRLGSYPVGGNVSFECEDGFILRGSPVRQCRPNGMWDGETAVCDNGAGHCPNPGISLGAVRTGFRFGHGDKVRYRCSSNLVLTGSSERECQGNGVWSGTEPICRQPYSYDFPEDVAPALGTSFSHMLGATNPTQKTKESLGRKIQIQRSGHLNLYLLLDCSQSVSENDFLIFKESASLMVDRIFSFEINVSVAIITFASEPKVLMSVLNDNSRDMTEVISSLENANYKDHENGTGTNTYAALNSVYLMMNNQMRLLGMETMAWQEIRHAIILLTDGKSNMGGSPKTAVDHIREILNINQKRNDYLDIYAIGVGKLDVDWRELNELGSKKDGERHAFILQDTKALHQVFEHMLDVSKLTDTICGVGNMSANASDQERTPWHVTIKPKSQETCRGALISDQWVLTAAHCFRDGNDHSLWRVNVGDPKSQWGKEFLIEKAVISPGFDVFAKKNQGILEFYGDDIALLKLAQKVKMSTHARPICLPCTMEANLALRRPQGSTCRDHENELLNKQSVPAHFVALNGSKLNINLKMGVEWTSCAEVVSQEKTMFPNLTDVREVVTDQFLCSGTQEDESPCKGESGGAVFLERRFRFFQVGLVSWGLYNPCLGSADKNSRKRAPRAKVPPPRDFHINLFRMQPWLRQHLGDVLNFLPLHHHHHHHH"}, "human C2 S713A": {"biological_target": "T2, human C2 S713A (human, UniProt P06681 21-752)", "T2 sequence": "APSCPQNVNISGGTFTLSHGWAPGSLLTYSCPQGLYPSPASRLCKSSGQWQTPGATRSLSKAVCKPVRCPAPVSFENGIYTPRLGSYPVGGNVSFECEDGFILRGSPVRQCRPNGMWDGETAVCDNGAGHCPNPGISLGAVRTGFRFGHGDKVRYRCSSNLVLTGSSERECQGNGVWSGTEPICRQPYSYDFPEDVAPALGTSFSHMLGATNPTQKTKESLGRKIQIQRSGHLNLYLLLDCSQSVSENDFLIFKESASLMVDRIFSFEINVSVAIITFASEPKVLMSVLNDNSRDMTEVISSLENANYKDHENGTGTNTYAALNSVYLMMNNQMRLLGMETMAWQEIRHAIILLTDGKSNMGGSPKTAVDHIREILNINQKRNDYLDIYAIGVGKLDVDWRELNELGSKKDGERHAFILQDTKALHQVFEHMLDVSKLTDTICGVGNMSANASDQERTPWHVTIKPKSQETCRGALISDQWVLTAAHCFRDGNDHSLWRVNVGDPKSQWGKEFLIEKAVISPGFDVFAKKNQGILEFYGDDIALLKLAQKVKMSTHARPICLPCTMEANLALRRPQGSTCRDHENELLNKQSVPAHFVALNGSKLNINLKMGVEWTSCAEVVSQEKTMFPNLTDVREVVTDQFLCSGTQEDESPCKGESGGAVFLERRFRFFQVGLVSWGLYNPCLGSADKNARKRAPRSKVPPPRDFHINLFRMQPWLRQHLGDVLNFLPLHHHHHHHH"}, "human C2 E450A": {"biological_target": "T3, human C2 E450A (human, UniProt P06681 21-752)", "T3 sequence": "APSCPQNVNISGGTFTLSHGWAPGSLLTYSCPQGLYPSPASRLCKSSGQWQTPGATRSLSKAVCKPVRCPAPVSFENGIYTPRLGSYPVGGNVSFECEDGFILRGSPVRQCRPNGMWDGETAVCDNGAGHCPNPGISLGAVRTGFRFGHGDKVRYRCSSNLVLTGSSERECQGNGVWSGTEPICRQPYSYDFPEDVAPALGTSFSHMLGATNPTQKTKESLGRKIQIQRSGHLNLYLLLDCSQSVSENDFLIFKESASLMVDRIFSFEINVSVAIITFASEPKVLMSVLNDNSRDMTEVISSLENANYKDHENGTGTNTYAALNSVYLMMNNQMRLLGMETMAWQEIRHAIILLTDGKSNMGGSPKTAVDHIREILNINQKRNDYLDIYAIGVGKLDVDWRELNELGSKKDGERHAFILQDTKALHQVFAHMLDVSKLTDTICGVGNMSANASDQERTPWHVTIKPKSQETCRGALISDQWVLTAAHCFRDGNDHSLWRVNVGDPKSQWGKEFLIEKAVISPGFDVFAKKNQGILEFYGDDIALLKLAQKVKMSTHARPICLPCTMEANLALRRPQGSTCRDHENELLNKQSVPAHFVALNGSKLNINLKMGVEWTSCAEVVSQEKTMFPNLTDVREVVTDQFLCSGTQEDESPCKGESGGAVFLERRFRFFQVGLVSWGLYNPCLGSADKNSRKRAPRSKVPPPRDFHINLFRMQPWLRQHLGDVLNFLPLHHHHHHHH"}, "human C2 T483A": {"biological_target": "T4, human C2 T483A (human, UniProt P06681 21-752)", "T4 sequence": "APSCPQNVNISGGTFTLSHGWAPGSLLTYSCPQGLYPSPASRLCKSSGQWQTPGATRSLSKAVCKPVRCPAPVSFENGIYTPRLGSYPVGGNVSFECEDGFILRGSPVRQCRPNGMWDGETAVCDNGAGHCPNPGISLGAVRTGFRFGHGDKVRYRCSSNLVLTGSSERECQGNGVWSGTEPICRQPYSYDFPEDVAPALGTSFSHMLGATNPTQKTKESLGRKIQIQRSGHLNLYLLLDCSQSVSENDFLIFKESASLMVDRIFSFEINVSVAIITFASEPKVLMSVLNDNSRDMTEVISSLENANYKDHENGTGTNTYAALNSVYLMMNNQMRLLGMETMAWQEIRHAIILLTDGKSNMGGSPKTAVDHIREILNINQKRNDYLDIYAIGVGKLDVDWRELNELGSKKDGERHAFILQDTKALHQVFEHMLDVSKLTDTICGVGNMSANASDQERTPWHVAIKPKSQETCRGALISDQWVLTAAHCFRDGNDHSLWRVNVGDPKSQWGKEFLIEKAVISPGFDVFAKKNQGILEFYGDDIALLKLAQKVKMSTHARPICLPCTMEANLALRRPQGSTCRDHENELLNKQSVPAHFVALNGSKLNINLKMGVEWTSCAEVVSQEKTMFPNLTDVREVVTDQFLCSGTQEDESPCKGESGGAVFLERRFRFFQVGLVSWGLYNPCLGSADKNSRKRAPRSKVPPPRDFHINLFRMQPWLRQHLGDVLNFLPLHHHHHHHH"}},
  "data": [
    {"binder": "RF16-226 (antibody, human IgG4 S228P, lambda, pH-dependent anti-C2 antibody from a phage display library; also called WT) heavy: not shown light: SYELTQPPSVSVSPGQTARITCSGDALTSKYVAWYQQKSGLAPLLVIYEDTRRPSGIPAKFSGSSSGSVATLTISGAHGDDEADYYCYSTDASGHQRVFGGGTKLTVLSQPKAAPSVTLFPPSSEELQANKATLVCLISDFYPGAVTVAWKADGSPVKAGVETTKPSKQSNNKYAASSYLSLTPEQWKSHRSYSCQVTHEGSTVEKTVAPTECS", "values": [
      {"measurement": "Fold diff", "setting": "human C2 S720A", "result": 1, "unit": "fold"},
      {"measurement": "Fold diff", "setting": "human C2 S713A", "result": 2, "unit": "fold"},
      {"measurement": "Fold diff", "setting": "human C2 E450A", "result": 0, "unit": "fold"},
      {"measurement": "Fold diff", "setting": "human C2 T483A", "result": 1, "unit": "fold"}
    ]}
  ]
}
